Data: patent US20260356960 (published 2026)
Where no end group is shown, it is not given here.

Assays:
[1] = target: T1, sST2 recombinant (human); assay: ELISA
T1 chain: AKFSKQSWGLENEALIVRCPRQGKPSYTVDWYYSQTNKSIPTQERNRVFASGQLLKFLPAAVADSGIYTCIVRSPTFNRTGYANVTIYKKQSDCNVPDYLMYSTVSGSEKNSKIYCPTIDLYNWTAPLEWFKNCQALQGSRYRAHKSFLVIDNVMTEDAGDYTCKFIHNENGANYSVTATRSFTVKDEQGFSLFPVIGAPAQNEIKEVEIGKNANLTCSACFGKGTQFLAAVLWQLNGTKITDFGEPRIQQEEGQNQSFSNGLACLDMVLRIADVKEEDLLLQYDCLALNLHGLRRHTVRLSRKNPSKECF

[2] = target: T2, SKECF peptide (human, not fully specified); assay: SPR
T2 chain: SKECF

B1: scFv-αsST2 (scFv 96-1) (antibody)
chain: MQVQLQQWGAGLLKPSETLSLTCAVYGGSFSGYYWSWIRQPPGKGLEWIGEINHSGSTNYNPSLKSRVTVSLDTSKNQFSLKLSSVTAADTAVYYCARGRGLVRFDSWGQGTTVTVSSGGGGSGGGGSGGGGSEIVLTQSPGTLSLSPGDRATLSCRASQFVGSSSVAWYQQRPGQAPRLLIYAAVSRASGIPDRFSGGGSGTDFTLTISRLEPEDSAVYYCLQYGSALYTFGQGTKLEIK
modifications: listing feature
- Kd [1]: 23 µM

B2: scFv-αsST2 (scFv 96-1) (antibody)
chain: B1 chain
- Kd [2]: 1.71 µM
